Source: article PMC9158284, “N-terminally truncated Aβ4-x proteoforms and their relevance for Alzheimer’s pathophysiology” (Translational Neurodegeneration, 2022)
“Also recorded” adds a separate entry of the source.

Tests used:
[1] = Autoradiography after SDS-polyacrylamide gel electrophoresis of [125I]-labeled Aβ preparations; type: physicochemical; settings: [125I]-labeled 24-h incubated preparations, 16.5% SDS–polyacrylamide gel
Protocol: (§1) One hundred micrograms of either full-length or truncated Aβ species in both monomeric and oligomeric forms were radiolabeled using 1,3,4,6-tetrachloro-3α-6α-diphenylglycoluril pre-coated tubes (Iodogen, ThermoFisher Scientific/Pierce, Waltham, MA) and Na^125I (1 mCi, PerkinElmer, Waltham, MA), following the manufacturer’s specifications. All radiolabeling procedures were carried out for 20 min in a Standalone Radioiodine IH-350 hood (Atlantic Nuclear, Rockland, MA). Following removal of free Iodine using a desalting polyacrylamide column (D-salt, cut off 1.8 kDa, Pierce), radioactivity of labeled Aβ was assessed in a Perkin Elmer 1470 automated gamma counter (Perkin Elmer, Waltham, MA). Under these experimental conditions, [^125I] incorporation rendered specific activities in the range of 3–5 µCi/µg with > 98% TCA precipitable counts. Aggregation status of the [^125I]-labeled Aβ monomeric and oligomeric species was analyzed by autoradiography following 16.5% SDS–polyacrylamide gel electrophoresis and subsequent direct exposure to HyBlot CL film (Denville Scientific Inc., South Plainfield, NJ), as we previously described. If not immediately used for the clearance experiments, [^125I]Aβ oligomeric peptides were stored at -80 °C and used within a week to prevent further oligomerization and minimize radiolysis.

[2] = after 24-h incubation at 37 °C, 50 μM in 10 mM phosphate buffer pH 7.4, 150 mM NaF; mean of 15 scans
Protocol: Changes in the secondary structure of the different Aβ peptides induced by the oligomerization procedure were estimated by CD spectroscopy, as previously described [66]. The HFIP-pretreated peptides were solubilized in deionized water as above, followed by further dilution to a final concentration of 50 μM in 10 mM phosphate buffer, pH 7.4, containing 150 mM sodium fluoride. Spectra in the far-ultraviolet (wavelength range: 190–260 nm; band-width 1 nm; intervals 1 nm; scan rate 60 nm/min) were recorded for each peptide immediately after solubilization and following 24-h incubation at 37 °C in a Jasco J-720 spectropolarimeter (Jasco Inc., Easton, MD) using a 1-mm-path quartz cell. For each sample, 15 consecutive spectra were obtained and averaged, the baseline reading was subtracted, and results were expressed in terms of molar ellipticity (deg × cm^2/dmol).

[3] = set-up: species or system C57BL/6 mice; settings: mouse, in vivo
Protocol: as §1
C57BL/6 mice (Taconic Biosciences, Hudson, NY) were intracerebrally injected with the different Aβ preparations following institutionally approved IACUC protocols, essentially as previously reported by our laboratory. […] Radioactivity remaining in the whole brain was assessed in the Perkin Elmer 1470 γ-counter.

[4] = Thioflavin T binding assay; type: physicochemical; settings: after 24-h incubation at 37 °C under physiological salt concentrations; 50 mM Tris–HCl pH 8.5; ex 435 / em 490 nm; three independent experiments
Protocol: Aggregation of the different Aβ homologues was also monitored by Thioflavin T binding, following previously described protocols. Briefly, 6 μl aliquots from each peptide aggregation time point were added to 184 μl of 50 mM Tris–HCl buffer, pH 8.5, and 10 µl of 0.1 mM thioflavin T (Sigma). Fluorescence was recorded for 300 s in an LS-50B spectrometer (Perkin Elmer, Waltham, MA) with a slit width of 10 nm and excitation and emission wavelengths of 435 and 490 nm, respectively.

[5] = Electron microscopy after negative staining; type: physicochemical; settings: 24-h incubation/oligomerization
Protocol: All synthetic homologues were incubated at a concentration of 1 mg/ml in 1,1,1,3,3,3,hexafluoro-isopropanol (HFIP; Sigma Chemical Co., St. Louis, MO) for 4 days, a pretreatment that breaks down β-sheet structures and disrupts hydrophobic forces, leading to monodisperse amyloid subunit preparations [67]. The HFIP-pretreated peptides were lyophilized and subsequently reconstituted to 1 mM in 1% NH4OH followed by further dilution in phosphate-buffered saline (PBS) to a final concentration of 50 µM and immediately used for radioiodination and direct intracerebral injection. […] The resulting oligomers were immediately used for radiolabeling and intracerebral injections.
Peptide oligomerization was also monitored by electron microscopy, as previously described [38, 66, 71]. Five microliters of either monomeric or oligomeric preparations of the different Aβ peptides were placed onto carbon-coated 400 mesh Cu/Rh grids (Ted Pella, Inc., Redding, CA) and stained with 1% uranyl acetate in distilled water (Polysciences, Inc., Warrington, PA). The stained grids were examined in a Philips CM-12 transmission electron microscope and photographed with a Gatan (4 k × 2.7 k) digital camera at the Image Core Facility of the Skirball Institute of Biomedical Medicine, NYU School of Medicine, as described [66, 71, 72].

[6] = mouse, in vivo; cited from earlier work
Text: In this sense, it is important to emphasize that the cerebral microvasculature, a main player in the regulation of Aβ homeostasis, suffers ...

| Substance | SDS-resistant oligomeric species of 24-h incubated preparations [1] | Secondary structure by CD upon oligomerization [2] | Brain clearance, percentage cleared relative to the total injected radioactivity, oligomeric (24-h incubated) preparation [3] | Thioflavin T binding (fluorescence) of oligomerized peptides [4] | Protofibrillar assemblies after the aggregation procedure, length (electron microscopy) [5] | Percentage cleared from brain, oligomeric form [6] [%] |
| --- | --- | --- | --- | --- | --- | --- |
| Aβ1-34: Synthetic homologue of amyloid-β C-terminally truncated at Leu34 | did not oligomerize within the 24-h experimental timeframe | maintained the same unordered conformation before and after | 86% ± 6% | negligible fluorescence signal | did not form protofibrilar elements |  |
| Aβ1-40: Synthetic homologue of full-length amyloid-β 1-40 | dimeric, trimeric and tetrameric assemblies | intermediate mixture of β-sheet and unordered structures |  | low-to-intermediate thioflavin T binding activity |  | < 40 |
| Aβ1-42: Synthetic homologue of full-length amyloid-β 1-42 | from tetramers to dodecamers | this type of secondary structure became more relevant | 61% ± 4% | highest thioflavin T binding |  |  |
| Aβ4-40: Synthetic homologue of Aβ1-40 N-terminally truncated at Phe4 | from tetramers to dodecamers | predominant unstructured random conformations | 46% ± 5% | low-to-intermediate thioflavin T binding activity; also recorded: higher thioflavin-binding activity than the full-length counterpart Aβ1-40 |  |  |
